Data on two molecules can be found in article PMC6910952 (Nature Communications, 2019).

Positions count from the first letter of the chain named. No end group written: not given here.

Details in all cases: both partners purified
Assay [1] deals with T1, GST-yNpl4 (full length, wild type) (Saccharomyces cerevisiae, UniProt P33755 1-580).
T1 construct: Npl4 of Saccharomyces cerevisiae (yNpl4), full length; codon-optimized synthetic cDNA; also called GST-Npl4; source: E. coli Rosetta (DE3) (pGEX-6P1), purified (Glutathione Sepharose FF, Resource Q); not shown: GST, N-terminal, kept
T1 sequence (looked up): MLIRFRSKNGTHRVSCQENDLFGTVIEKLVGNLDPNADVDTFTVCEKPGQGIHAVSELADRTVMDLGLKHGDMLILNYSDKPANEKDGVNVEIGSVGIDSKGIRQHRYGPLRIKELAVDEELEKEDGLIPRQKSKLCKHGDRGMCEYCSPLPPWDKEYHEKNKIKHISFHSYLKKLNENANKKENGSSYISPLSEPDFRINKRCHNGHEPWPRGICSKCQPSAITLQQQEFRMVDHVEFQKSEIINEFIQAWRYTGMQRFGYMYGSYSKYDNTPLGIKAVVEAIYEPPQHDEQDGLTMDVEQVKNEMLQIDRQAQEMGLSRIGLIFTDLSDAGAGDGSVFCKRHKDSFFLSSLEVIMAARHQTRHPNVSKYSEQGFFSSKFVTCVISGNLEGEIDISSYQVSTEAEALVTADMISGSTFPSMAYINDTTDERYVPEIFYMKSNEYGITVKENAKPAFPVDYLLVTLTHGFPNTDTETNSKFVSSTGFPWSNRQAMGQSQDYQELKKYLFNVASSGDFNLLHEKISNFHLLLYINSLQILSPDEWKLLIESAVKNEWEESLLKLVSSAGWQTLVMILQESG
Nature of the assay: pull-down; GST-yNpl4 (0.5 μM) on glutathione beads with 0.5 μM yUfd1 alone; full-length proteins; SDS-PAGE, Coomassie (Fig. 3e).

The target of assay [2] is T2, His6-yNpl4^113–580 L296A (Saccharomyces cerevisiae, UniProt P33755 113-580, L296A).
T2 construct: also called yNpl4 L296A; source: E. coli Rosetta (DE3), purified (Ni-NTA, Resource Q); not shown: His6, N-terminal, kept
T2 sequence (looked up): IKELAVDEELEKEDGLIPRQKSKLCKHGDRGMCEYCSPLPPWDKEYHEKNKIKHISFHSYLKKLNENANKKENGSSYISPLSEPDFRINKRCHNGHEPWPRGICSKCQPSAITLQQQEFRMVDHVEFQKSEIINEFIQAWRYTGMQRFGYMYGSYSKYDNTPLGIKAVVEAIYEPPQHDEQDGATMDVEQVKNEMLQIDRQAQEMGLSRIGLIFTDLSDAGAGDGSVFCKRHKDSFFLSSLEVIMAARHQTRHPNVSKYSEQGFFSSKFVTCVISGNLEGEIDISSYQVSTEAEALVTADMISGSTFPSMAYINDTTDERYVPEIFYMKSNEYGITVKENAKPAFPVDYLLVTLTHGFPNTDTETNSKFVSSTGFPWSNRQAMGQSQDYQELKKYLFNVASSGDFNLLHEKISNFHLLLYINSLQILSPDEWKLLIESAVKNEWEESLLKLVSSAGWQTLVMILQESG
Nature of the assay: fluorescence polarisation; fluorescence anisotropy; 1 nM FlAsH-labeled His6-SUMO-yUfd1 peptide, His6-yNpl4^113–580 in two-fold dilution series; 25 °C; 50 mM Tris-HCl pH 8.0, 100 mM NaCl, 5 mM β-mercaptoethanol, 0.1 g/L BSA.

In assay [3] the target is T3, His6-yNpl4^113–580 F326A (Saccharomyces cerevisiae, UniProt P33755 113-580, F326A).
T3 construct: also called yNpl4 F326A; source: E. coli Rosetta (DE3), purified (Ni-NTA, Resource Q); not shown: His6, N-terminal, kept
T3 sequence (looked up): T2 sequence (looked up) with A184L, F214A
Described as above.

Assay [4] addresses T4, His6-yNpl4^113–580 F419A (Saccharomyces cerevisiae, UniProt P33755 113-580, F419A).
T4 construct: also called yNpl4 F419A; source: E. coli Rosetta (DE3), purified (Ni-NTA, Resource Q); not shown: His6, N-terminal, kept
T4 sequence (looked up): T2 sequence (looked up) with A184L, F307A
Described as above.

B1: yUfd1 (full length, untagged) (natural protein, Saccharomyces cerevisiae, UniProt P53044 1-361, looked up)
chain: MFSGFSSFGGGNGFVNMPQTFEEFFRCYPIAMMNDRIRKDDANFGGKIFLPPSALSKLSMLNIRYPMLFKLTANETGRVTHGGVLEFIAEEGRVYLPQWMMETLGIQPGSLLQISSTDVPLGQFVKLEPQSVDFLDISDPKAVLENVLRNFSTLTVDDVIEISYNGKTFKIKILEVKPESSSKSICVIETDLVTDFAPPVGYVEPDYKALKAQQDKEKKNSFGKGQVLDPSVLGQGSMSTRIDYAGIANSSRNKLSKFVGQGQNISGKAPKAEPKQDIKDMKITFDGEPAKLDLPEGQLFFGFPMVLPKEDEESAAGSKSSEQNFQGQGISLRKSNKRKTKSDHDSSKSKAPKSPEVIEID
notes: Ufd1 of Saccharomyces cerevisiae (yUfd1), full length; codon-optimized synthetic cDNA; removal of GST by HRV3C is surmised; also called untagged Ufd1; source: E. coli Rosetta (DE3) (pGEX-6P1), purified
For the molecule B1, in assay [1], the binding result is “binds”.

B2: FlAsH-labeled His6-SUMO-yUfd1^288–305-GWCCPGCC (peptide, UniProt P53044 288-305, looked up)
chain: {His6-SUMO}-EPAKLDLPEGQLFFGFPMGWCCPGCC
modifications: cysteine pairing not given here; also: FlAsH label bound to CCPGCC motif
notes: the assay methods print 280-305; also called yUfd1-FlAsH; yUfd1 WT; source: E. coli Rosetta (DE3) (pCold-SUMO), purified (Ni-NTA, Resource Q), labeled with FlAsH-EDT2; not shown: His6, N-terminal, kept; SUMO, N-terminal, kept
With B2, the Kd (commonly the equilibrium constant for the complex coming apart) was found to be 7.02 µM in assay [2], 0.257 µM in assay [3] and 0.158 µM in assay [4].
